Test results: publication doi:10.1101/2021.02.26.433003 (bioRxiv, 2021)

Molecular target: the molecule itself
Test: dynamic light scattering + fluorescence microscopy

B1: Dhh1^48-425 (domain or fragment, yeast, UniProt P39517 48-425, looked up)
chain: FEDFYLKRELLMGIFEAGFEKPSPIQEEAIPVAITGRDILARAKNGTGKTAAFVIPTLEKVKPKLNKIQALIMVPTRELALQTSQVVRTLGKHCGISCMVTTGGTNLRDDILRLNETVHILVGTPGRVLDLASRKVADLSDCSLFIMDEADKMLSRDFKTIIEQILSFLPPTHQSLLFSATFPLTVKEFMVKHLHKPYEINLMEELTLKGITQYYAFVEERQKLHCLNTLFSKLQINQAIIFCNSTNRVELLAKKITDLGYSCYYSHARMKQQERNKVFHEFRQGKVRTLVCSDLLTRGIDIQAVNVVINFDFPKTAETYLHRIGRSGRFGHLGLAINLINWNDRFNLYKIEQELGTEIAAIPATIDKSLYVAENDET
binding result: binds
